Test results reported in patent US6831161B1, “Method of affinity separation and ligands for use therein” (Affibody AB, priority 1998, dated 2004).

Columns and labels:
HSA [1] = biological target: T1, HSA (Homo sapiens, UniProt P02768); assay type: binding; conditions: for Kaff (affinity constant, ratio between Kon and Koff): BIAcore 2000, HSA immobilized on CM5 chip
Source text: (§1) A BIAcore 2000 instrument (Biacore AB) was used for real time affinity analysis. HSA and IgG were immobilized on two different surfaces of a CM5 sensor chip by amine coupling to the carboxylated dextran layer. This coupling was done according to the manufacturer's recommendation (Biacore AB). The IgG surface was used as a control. The samples were run through a 0.45 μm filter and injected over the surface in a random order at a flow rate of […].
Also, an analysis of the kinetic parameters was performed for the proteins that still remained active. This was done by analysing the binding behaviour in different concentrations and thereafter calculating the binding constants by using BIAevaluation 2.1 software (BIAcore AB). The concentrations used were 40-220 nM for ABDwt, 200-600 nM for ABDmut and 800-1250 nM for the NaOH treated ABDmut.

HSA [2] = biological target: T1, HSA; experiment: Alkaline resistance of affinity columns: HSA capacity after repeated 0.5 M NaOH washes; conditions: ligand on Sepharose 4B; 15 cycles of 0.5 M NaOH wash, total exposure over 6 hours; FIG. 6
Description: In order to evaluate the usability of the stabilized HSA-binding protein in biotechnology, two affinity chromatography matrices were prepared; one with the unmutated protein (ABDwt) as a control and the other with the mutated ABD (ABDmut). The matrix used was Sepharose 4B (Amersham Pharmacia Biotech, Uppsala, Sweden) with carbodiimide CMC (Sigma Aldrich, Sweden) as the coupling reagent. ABDwt (4.5 mg) and ABDmut (8.5 mg) were dissolved in 9 ml water separately. 3.5 and 5.0 ml gel was added to ABDwt and ABDmut solutions respectively. Finally 0.38 g of CMC was added to the solutions and they were incubated at room temperature over night. The gels were packed on HR columns (d=5 mm, h=43 mm) and pulsed with 0.5 M ethanolamine, 0.5 M NaCl, pH 8.3 in order to inactivate the matrix and 0.1 M NaAc, 0.5 M NaCl, pH 4 in order to wash unbounded proteins out. After this, the columns were ready to use for affinity purification of HSA.
In order to explore the difference between the ABDwt column and the ABDmut column in respect of stability against alkaline treatment, both columns were repeatedly washed with 0.5 M NaOH. By using the AKTA explorer the columns were loaded with HSA, the protein was eluted by lowering the pH (Stahl et al., (1989) supra) and finally both columns were washed with NaOH. […] The flow rate used was 60 cm/h and the eluted material was collected and analyzed in each round. […]

HSA [3] = biological target: T1, HSA; experiment: Binding characteristics (BIAcore) before and after treatment with 0.5 M NaOH for 24 hours; conditions: room temperature, 800 nM on BIAcore, FIG. 5
Description: In order to examine the stability of ABDwt and ABDmut, the binding characteristics were analysed before and after treatment with 0.5 M NaOH in room temperature for 24 hours. Both ABDwt and ABDmut were solubilized in 1×HBS (10 mM HEPES, pH 7.4, 150 mM NaCl, 3.4 mM EDTA, 0.005% P20) to a concentration of 800 nM and analyzed on BIAcore 2000 (Biacore AB, Uppsala, Sweden). In order to determine the activity change after exposure to a very alkaline environment, the proteins were solubilized in 0.5 M NaOH. After incubation in NaOH for 24 hours, the samples were run through a NAP-10 column (Amersham Pharmacia Biotech, Uppsala, Sweden) equilibrated with 30 mM NH4Ac. The protein containing samples were lyophilized and resolubilised in 1×HBS to a concentration of 800 nM in order to be analyzed in the BIAcore 2000.
as §1

HSA [4] = biological target: T1, HSA; experiment: HSA-binding analysis of ABDmut triple mutants on BIAcore; conditions: 200 nM, 20 μl/min, immobilised HSA on CM5 chip, FIG. 7
Source text: ABDmut22-25-26, ABDmut29-30-33, and ABDmut54-57-58 proteins were produced and purified as described in Example 2. In order to analyse the binding behaviour of the different triple-mutants a BI core 2000 instrument was used. HSA was immobilised on a sensor chip surface of a CM5 sensor chip by amine coupling to the carboxylated dextran layer. As control, a sensor chip surface containing IgG was used. This coupling was done according to the manufacturers recommendation (Biacore AB). The samples of the three proteins were run through a 0.45 μm filter and injected over the surface in a random order at a flow rate of 20 μl/min. The concentration used was 200 nM and all samples were analysed three times. […] In addition, residue 62 could also be used for substitutions.

| Kaff (affinity constant, ratio between Kon and Koff) (HSA [1]) | Ability to bind HSA (sensorgrams) (HSA [4]) | Molecule | Koff (dissociation rate) (HSA [1]) [L/s] | Kon (rate at which the proteins associate) (HSA [1]) | Column activity (HSA capacity) against NaOH exposure time (HSA [2]) | Affinity towards HSA after exposure to alkaline solution (HSA [3]) |
| --- | --- | --- | --- | --- | --- | --- |
| 1.5 × 10^7 l/M | – | ABDmut: ABD with Asn28 replaced by leucine, Asn42 by aspartic acid, Asn45 by aspartic acid and Asn46 by lysine (protein) MKAIFVLNAQHDEAVDANSLAEAKVLALRELDKYGVSDYYKDLIDKAKTVEGVKALIDEILAALP | 0.0012 | 1.8 × 10^4 l/Ms | keeping the activity throughout the experiment | has the affinity preserved |
| – | retain their ability to bind HSA | ABDmut54-57-58: ABDmut domain containing alanine substitutions at positions 54, 57 and 58 (protein) MKAIFVLNAQHDEAVDANSLAEAKVLALRELDKYGVSDYYKDLIDKAKTVEGVAALAAEILAALP | – | – | – | – |
| 6.9 × 10^7 l/M | – | ABDwt: Wild type Albumin Binding Protein domain from Streptococcus G148 with affinity towards human serum albumin; four asparagine residues (protein) MKAIFVLNAQHDEAVDANSLAEAKVLANRELDKYGVSDYYKNLINNAKTVEGVKALIDEILAALP | 0.0013 | 9.0 × 10^4 l/Ms | – | loses the affinity towards HSA |

Further lines, the molecule ahead of its results:

| Molecule | Kaff (affinity constant, ratio between Kon and Koff) (HSA [1]) | Ability to bind HSA (sensorgrams) (HSA [4]) | Koff (dissociation rate) (HSA [1]) [L/s] | Kon (rate at which the proteins associate) (HSA [1]) | Column activity (HSA capacity) against NaOH exposure time (HSA [2]) | Affinity towards HSA after exposure to alkaline solution (HSA [3]) |
| --- | --- | --- | --- | --- | --- | --- |
| ABDmut29-30-33: ABDmut domain containing alanine substitutions at positions 29, 30 and 33 (protein) MKAIFVLNAQHDEAVDANSLAEAKVLALAALDAYGVSDYYKDLIDKAKTVEGVKALIDEILAALP | – | retain their ability to bind HSA | – | – | – | – |
| ABDmut22-25-26: ABDmut domain containing alanine substitutions at positions 22, 25 and 26 (protein) MKAIFVLNAQHDEAVDANSLAAAKAAALRELDKYGVSDYYKDLIDKAKTVEGVKALIDEILAALP | – | retain their ability to bind HSA | – | – | – | – |
